Where a chain is given by its changes, count along the chain named.
What was measured:
Assay in all cases: SEC; purified recombinant AtPDC E1 on a Superose 12 column in 50 mM TES-NaOH, pH 7.4, 50 mM NaCl, 0.1 mM TPP, 0.2 mM MgCl2; fractions analysed by SDS-PAGE and immunoblotting
Details in all cases: both partners purified
[1] = molecular target: T1, AtPDC E1α G297D mutant, H6-tagged (Arabidopsis thaliana, UniProt P52901 18-389, G297D)
T1 sequence (looked up): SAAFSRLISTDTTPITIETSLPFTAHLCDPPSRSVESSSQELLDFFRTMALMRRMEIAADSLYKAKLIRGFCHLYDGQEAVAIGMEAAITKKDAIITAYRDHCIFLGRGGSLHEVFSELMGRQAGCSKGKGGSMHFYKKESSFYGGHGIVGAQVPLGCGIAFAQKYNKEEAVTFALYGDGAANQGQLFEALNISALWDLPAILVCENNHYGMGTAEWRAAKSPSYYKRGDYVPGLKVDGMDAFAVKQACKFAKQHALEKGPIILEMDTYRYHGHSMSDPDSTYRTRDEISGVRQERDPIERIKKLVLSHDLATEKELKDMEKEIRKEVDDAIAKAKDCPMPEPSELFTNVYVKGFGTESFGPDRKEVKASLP

[2] = molecular target: T2, AtPDC E1α G297S mutant, H6-tagged (Arabidopsis thaliana, UniProt P52901 18-389, G297S)
T2 sequence (looked up): T1 sequence (looked up) with D280S

[3] = molecular target: T3, AtPDC E1α S292D mutant, H6-tagged (Arabidopsis thaliana, UniProt P52901 18-389, S292D)
T3 sequence (looked up): T1 sequence (looked up) with S275D, D280G

[4] = molecular target: T4, AtPDC E1α S292D/S298A double mutant, H6-tagged (Arabidopsis thaliana, UniProt P52901 18-389, S292D | S298A)
T4 sequence (looked up): T1 sequence (looked up) with S275D, D280G, S281A

[5] = molecular target: T5, AtPDC E1α D295A mutant, H6-tagged (Arabidopsis thaliana, UniProt P52901 18-389, D295A)
T5 sequence (looked up): T1 sequence (looked up) with D278A, D280G

Measured: binding result

B1: Arabidopsis thaliana mitochondrial pyruvate dehydrogenase E1β subunit (AtPDC E1β), FLAG-tagged (enzyme, UniProt Q38799 30-363, looked up)
chain: AAGAKEMTVRDALNSAIDEEMSADPKVFVMGEEVGQYQGAYKITKGLLEKYGPERVYDTPITEAGFTGIGVGAAYAGLKPVVEFMTFNFSMQAIDHIINSAAKSNYMSAGQINVPIVFRGPNGAAAGVGAQHSQCYAAWYASVPGLKVLAPYSAEDARGLLKAAIRDPDPVVFLENELLYGESFPISEEALDSSFCLPIGKAKIEREGKDVTIVTFSKMVGFALKAAEKLAEEGISAEVINLRSIRPLDRATINASVRKTSRLVTVEEGFPQHGVCAEICASVVEESFSYLDAPVERIAGADVPMPYAANLERLALPQIEDIVRASKRACYRSK
binds: [1] | [2] | [3] | [4] | [5]

Reference: publication PMC3034952 (Enzyme Research, 2011)
